Target: T1, α-CT coiled-coil domain fused with HIS tag (α-CT-His), fluorescently labeled (Arabidopsis thaliana, fluorescently labeled using His-tag labeling kit (NanoTemper, MO-L008))
T1 construct: α-carboxyltransferase (α-CT), Arabidopsis thaliana, At2g38040, C-terminus / coiled-coil domain; also called C-terminus of α-CT; labeled α-CT coiled-coil domain; source: expressed in Luria Broth with IPTG (pET30a), purified on nickel agarose resin
Assay: MST; 100 nM α-CT-His labeled with His-tag labeling kit, mixed with serial dilutions of CTI in PBS buffer; 100% LED power, high MST power, NanoTemper Monolith NT.115
Conditions: both partners purified

fold higher affinity than CTI2 (from KD values): 100 fold
fold higher affinity than CTI3 (from KD values): 10 fold
B1: coiled-coil domain of CTI1 fused with HIS tag (domain or fragment)
chain: PQISKAIAGADRKDLMRKLPKFIYDEEKALEKTRKVLAEKIAQLNSAIDDVSSQLKSEDTPNGAALSTDEIEATA

— PMC7712654, “Docking of acetyl-CoA carboxylase to the plastid envelope membrane attenuates fatty acid production in plants” (Nature Communications, 2020)
